Data published in article PMC2267071.
Values joined by “and” are separate entries in the source; they are usually repeats but may differ in a detail not shown here. Equal entries are not always repeated.

Assays:
[1] = target: His4 (position 4, --TEAHHK---); assay: NMR; conditions: 25 C; free peptide (no metal), 5 mM
[2] = target: His5 (position 5, -TEAHHK----); assay: NMR; conditions: 25 C; free peptide (no metal), 5 mM
[3] = target: Glu2 (position 2, ----TEAHHK-); assay: potentiometry; conditions: 25 C; 0.1 M KNO3; free peptide (no metal)
[4] = target: His4 (position 4, --TEAHHK---); assay: potentiometry; conditions: 25 C; 0.1 M KNO3; free peptide (no metal)
[5] = target: His5 (position 5, -TEAHHK----); assay: potentiometry; conditions: 25 C; 0.1 M KNO3; free peptide (no metal)
[6] = target: Lys6 (position 6, TEAHHK-----); assay: potentiometry; conditions: 25 C, 0.1 M KNO3
[7] = target: His4 (position 4, --TASHHK---); assay: NMR; conditions: 25 C; free peptide (no metal), 5 mM
[8] = target: His5 (position 5, -TASHHK----); assay: NMR; conditions: 25 C; free peptide (no metal), 5 mM
[9] = target: His4 (position 4, --TASHHK---); assay: potentiometry; conditions: 25 C; 0.1 M KNO3; free peptide (no metal)
[10] = target: His5 (position 5, -TASHHK----); assay: potentiometry; conditions: 25 C; 0.1 M KNO3; free peptide (no metal)
[11] = target: Lys6 (position 6, TASHHK-----); assay: potentiometry; conditions: 25 C; 0.1 M KNO3; free peptide (no metal)
[12] = target: His4 (position 4, --TESHHK---); assay: NMR; conditions: 25 C; free peptide (no metal), 5 mM
[13] = target: His5 (position 5, -TESHHK----); assay: NMR; conditions: 25 C; free peptide (no metal), 5 mM
[14] = target: Glu2 (position 2, ----TESHHK-); assay: potentiometry; conditions: 25 C; 0.1 M KNO3; free peptide (no metal)
[15] = target: His4 (position 4, --TESHHK---); assay: potentiometry; conditions: 25 C; 0.1 M KNO3; free peptide (no metal)
[16] = target: His5 (position 5, -TESHHK----); assay: potentiometry; conditions: 25 C; 0.1 M KNO3; free peptide (no metal)
[17] = target: Lys6 (position 6, TESHHK-----); assay: potentiometry; conditions: 25 C, 0.1 M KNO3
[18] = Zn(II)-bound peptide (ZnH-1L to ZnH-2L step), peptide:Zn ratios 1:1 and 2:1

B1: Ac-TEAHHK-NH2, Ser-to-Ala analogue of the histone H2A -TESHHK- peptide (synthetic peptide; sequence derived from mammalian histone H2A (species not stated); … (peptide)
chain: TEAHHK
pKa [1]: 6.42 (2) and 6.15 (3)
pKa [2]: 6.48 (2) and 6.72 (2)
pKa [3]: 4.10
pKa [4]: 6.00
pKa [5]: 6.68
pKa [6, 18]: 10.34
pKa ([6]; free peptide (no metal)): 10.25

B2: Ac-TASHHK-NH2, Glu-to-Ala analogue of the histone H2A -TESHHK- peptide (synthetic peptide; sequence derived from mammalian histone H2A (species not stated); … (peptide)
chain: TASHHK
pKa [7]: 6.29 (2) and 6.06 (3)
pKa [8]: 6.30 (2) and 6.61 (4)
pKa [9]: 5.74
pKa [10]: 6.62
pKa [11]: 10.48

B3: Ac-TESHHK-NH2, hexapeptide model of the histone H2A C-terminal tail (-ESHH- motif) (synthetic peptide; sequence from mammalian histone H2A (species not stated)) (peptide)
chain: TESHHK
pKa [12]: 6.35 (I) and 6.12 (4)
pKa [13]: 6.41 (2) and 6.88 (5)
pKa [14]: 3.85
pKa [15]: 5.90
pKa [16]: 6.78
pKa [17, 18]: 10.30
pKa ([17]; free peptide (no metal)): 10.28
